Source: the nanobody polyreactivity screen of Harvey et al. (2022)

Test: yeast display, Sf9 membrane polyspecificity reagent, FACS + sequencing; frameworks hold sequencing errors
Method in brief: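 After 36–48 hours of galactose induction, yeast (Saccharomyces cerevisiae BJ5465) displaying a synthetic nanobody library were stained at 4 °C for 1 hour with 10% biotinylated, detergent-solubilized Sf9 membrane reagent. Streptavidin microbeads enriched the stained cells before FACS sorting into low and high (top ~1%) gates on anti-HA and streptavidin fluorescence. Each clone's polyreactivity label reflects its gate of origin.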

Row | Sequence | polyreactivity (PSR sort gate)
1 | QVQLVESGGGLVQAGGSLRLSCAASGRIFAWNDMGWYRQAPGKERELVAAITSGGSTYYADSVKGRFTISRDNAKNTVYLQMNSLKPEDTAVYYCAAGSAYYSQRYFAYGYDSWGQGTQVTVSS | low polyreactivity
2 | QVQLVESGGGLVQAGGSLRLSCAASGSIFSTYAMGRYRQAPGKERELVAAITFGGGTTYYADSVKGRFTISRDNAKNTVYLQMNSLKPEDTAVYYCAARYYYGSWYFYYSDKYDYWGQGTKVTVSS | low polyreactivity
3 | QVQLVESGGGLVQAGGSLRLSCAASGSTFEIYAMGWYRQAPGKERELVAAIDFSGGSTYYADSVKGRFTISRDNAKKTLYLQMNSLKPEDTAVYYCAVDSASDTIYDYWGQGTQVTVSS | low polyreactivity
4 | QVQLVESGGGLVQAGGSLSLSWAASGFIFRLYAMGWYRQAPGKERELVSGITQRGGRTYYADSLKGRFTISRDNANNTVYLQMNSLKPEDTAVYYCAADRCEYVYWGQGTQVTVSS | high polyreactivity
5 | QVQLVESGGGLVQAGGSLRLSCAASGSTFVWYAMGWYRQAPGKEREFVATISWSDGSTYYADSVKGRFTISRDNAKNTVYLQKNSLKPEDTAVYYCATDVDRFFTYKYDYWGQGTQVTVSS | low polyreactivity
6 | QVQLVESGGGLVQAGGSLRLSCAASGFIFYGYAMGWYIQAPGKERELVATISRRGGSTYYADSVKGRFTISRDNAKNTVYLQMNSLKPEDSAVYYCAKRRGTQEPTYVPTRSNGFDYWGHGTQVTVSS | low polyreactivity
7 | QVQLVESGGGLDQAGGSLPLSCASSGSIFRSNAMGWSRQPPAKAREMVAAITESGDTTNYADSVKGRFTISRDNAKNTVYLQMNSLKPEDTAVYYCNAGWTMSYVYSQMDYWGQGTQVTVSS | low polyreactivity
8 | QVQLVESGGGLVQAGGSLRLSCAASGPTFSKANAMGWYRQAPVKERELVAAITDGGSTYADSVKGRFTISRDNAKNTVYLQINSLKPEDTAVYYCAKDTEVFYDASYDYWGQGTQVTVSS | low polyreactivity
9 | QVQLVESGGGLVQAGGSLRLSCAASGSIFFVNAMGWYRQAPGKERELVAGITGGGSTYYADSVKGRFTISRDNAKNTVYLQMNSLKPEDTAVYYCNKKAYRKTGMDYWGQGTQVTVSS | low polyreactivity
10 | QVQLVESGGCLVQAGGSLRLSCAASGRTFAWYAMGWYRQAPGKERELVAAISSGGSTYYADSVKGRFTISRDNAKNTVYLQMDSLKPEDTAVYYCAAEWHYIYAYDYWGQGTQVTVSS | low polyreactivity
11 | QVQLVESGGGLVQAGGSLRLSCAASGNIFQKYAMGWYRQAPGKERELVAAIRRGDRTYADSVKGRFTISRDNAKNTVYLQMNSLKPEDTAVYYCNTAGASYFTAGYGYWGQGTQVTVSS | low polyreactivity
12 | QVQLVESGGGLVQAGGSLRLSCAASGRTFDVYAMGGYRQAPGKERELVATIYYRSARTYYADSVKGRFTISRDNAKNTVYLQMNSLTPEDTAVYYCAAYFETWHGFGYWGQGTQVTVSS | high polyreactivity
13 | QVQLVESGGGLVQAGGSLRLSCAASGNIFPYYAMGWYRQAPGKERELVASISRSGGSTYYADSVKGRFTISRDNAKNTVYLQMNSLKPEDTAVYYCAKRTPYYGFGFFHPARGYGYWGQGTQVTVSS | low polyreactivity
14 | QVQLVESGGGLVQAGGSLRLSCADSGLTFQRYAMGWYRQAPGKERELVAAISQRGSSTYYADSVKGRFTISRDNAKNTVYLQMNSLKPEDTAVYYCNARPYLFWLSIYDYWGQGTQVTVSS | low polyreactivity
15 | QVQLVESGGGLVQAGGSLRLRCAASGRIFRLYDMGWYRHAPGKEREFVAAISSSGDSTYYADSVKGRFTISRDNAKNTVYLQMNSLKPEDTAVYYCAAVTRRYVLSTFYYWGQGTQVTVSS | high polyreactivity
16 | QVQLVESGGGLVQAGGSLRLSCAASGRIFNRYAMGWYSQAPGKERELVARITSSGSTNYADSVKGRFTISRDNAKNTVYLQMNSLKPEDTAVYYCAARKLFIPKYYYWGQGTQVTVSS | high polyreactivity
17 | QVQLVESGGGLVQAGGSLRLICAASGSIFARYAMGWYRQAPGKERELVAAITGRGGSTYYADSVKGRFTISRDNAKNTVYLQMNSLKPEDTAVYYCNAVGHTSIRRALDILDYWGQGTQVTVSS | high polyreactivity
18 | QVQLVESGGGLVQEGGSLRLSCAATGSIFSSYAMGWYRQAPGKERELVASINSAGSTNYADSVKGRFTISRDNAKITVYLQMNSLKPEDTAVYYCARGGAVVYLDYWGQGTQVTVSS | low polyreactivity
19 | QVQLVESGGGLVQAGGILRLSCAASGSIFNYYAMGWYRQAPGKEREMVAAITTSGGRTYYADSVKGRFTISRDNAKNTVYLQMNSLKPEDTAVYYCAARGYGRRAYVYRYDYWGQGTQVTVSS | high polyreactivity
20 | QVQLVESGGGLVQAGGSLRLSCAASGGIFGHNAMGWYRQAPGKERELVAAISYTGGSTYYADSVKGRFTISRDNAKNTVYLQMNSLKPEDTAVYYCNAVQRRFRYPFDYWGQGTQVTVSS | low polyreactivity
21 | QVQLVESGGGLVQAGGSPRLSCAASGSIFSRNTMGWYRQAPGKERELVATITSGSNTNYADSVKGRFTISRDNAKNTVYLQMNSLKPEDTAVYYWGQGTQVTVSS | low polyreactivity
22 | QVQLVESGGGLVQAGGSLRLSCAASGSTFQVYTMGWYRQAPGKEREFVASISWSGSSTYYADSVKGRFTISRDNAKNTVYLQMNSLKPEDTAVYYCAAPDESYSVWRLDGLDYWGQGTQVTVSS | high polyreactivity

Row | Sequence | polyreactivity (PSR sort gate)
23 | QVQLVESGGGLVQAGGSLRLSCAASGSTFYYYAMGWYRQAPGKERELVAAITYSGGGTYYADSVKGRFTISRDNAKNTVYLQMNSLKPEDTAVYYCAKTIAVNTWYYYWGQGTQVTVSS | low polyreactivity
24 | QVQLVESGGGLVQAGGSLRLSCAASGSIFDHNAMGWYRQAPGKEREFVAAISSSGGSTYYADSVKGRFTISRDKAKNTVYLQMNSLKPEDTAVYYCAAFPDRYVEHGYWGQGTQVTVSS | low polyreactivity
25 | QVQLVESGGGLVQAGGSLRLSCAASGSILKNNAMGWYRQAPGKERELVAAITYSSGSTYYADSVKGRFTISRDNAKNTVYLQMNILKPEDTAVYYCATDPEGSTGGGYEYWGQGTQVTVSS | low polyreactivity
26 | QVQLVESGGGLVQAGGSLRLSCAASGSTFGQYAMGWYRQAPGKERELVAAISRNGGRTYYADSVKGRFTISRDNAKNTVYLQMNSLKPEDTAVYYCAAGGFHYVYYRGMYYWGQGTQVTVSS | high polyreactivity
27 | QVQLVESGGGLVQAGGSLRLSCAPSGRTFYWYTMGWYRQAPGKERELVAAISSSDGSTYYADSVKGRFTISRDNAKNTVYLQMNSLKPEDTAVYYCAADLYYYRYWYRFNYWGQGTQVTVSS | high polyreactivity
28 | QVQLVESGGGLVQAGGSLRLSCAASGRIFSVYAMGWYRQAPGKERELVAAITWTGGRTYYADSVKGRFTISRDNAKNTVYLQMNSLKPEDTAVYYCNKDWGRYRYDYWGQGTQVTVSS | high polyreactivity
29 | QVQLVESGGGLVQAGGSLRLSSAASGFTFKAYALGWYRQAPGTERELVAAITKSGGRTFYADSVKGRFTISRDNAKNTVYLQINCLNPEDTAVYYCSGRRWGYWTGYRGLDYDYWGQGTQVTVSS | high polyreactivity
30 | QVQLVESGGGLVQAGGSLRLSCAASGFIFARNTMGWYRQSPGKERELVAAITKSGGSTYYADSVKGRFTISRDNAKNTVYLQMNSLKPEDTAVYYCAKDPVELSPADWRADYDYWGQGTQVTVSS | low polyreactivity
31 | QVQLVESGGGLVQAGRSLRLICAASGSTFVIYDMVWYRQAPGKERELVAAISYSGGSTYYADSVKGRFKISRDNAKNTVYLEMNSLKPEDTAVYYCNAGVLVLLYSYLQSELEYWGQGTQVTVSS | low polyreactivity
32 | QVQLVESGGGLVQAGGSLRLSCAASGSIFYYAMGWYREAPGKERELVAAISRSGGSTYYADSVKGRFTISRDNAKNTVYLQMNSLKPEDTAVYYCAKGYRGYSYGYWRQGTQVTVSS | high polyreactivity
33 | QVQLVESGGGLVQAGGSLRLSCAASGRTFRRYTMGWYRQAPGKERELVAAITTSGGSTYYADSVKGRFTISRDNAKNTVYLQMNSLKPEDTAVYYCAATRRYSGDYWGQGTQVTVSS | high polyreactivity
34 | QVQLVESGGGLVQAGGSLRLSCAASGRIFDPYTMGWYRQAPGKERELVAAISGRTGRTYYADSVKGRFTISRDNAKNTVYLQMNSLKPEDTAVYYCNAVRYVVLPGGPKFDYWGQGTQVTVSS | high polyreactivity
35 | QVQLVESGGGLVQAGGSLRLSCAASGSTFWHYAMGWYRQAPGKERELVAAISSGGGRTYYADSVKGRFTISRDNAKNTVYLQMNSLQPEDTAVYYCAARYYFYDYWGQGTQVTLSS | high polyreactivity
36 | QFQLVDSGGGLVQPGGSLRLRCAASGLTFQQYAMGWYRQAPGKERELVAAITSDGASTNYADSVKGRFTISRDNAKNTVYLQMNSLKPEDTAVYYCAARRRSRQYRYDYWGQGTQVTVSS | high polyreactivity
37 | QVQLVESGGGLVQAGGILRLSCAASGFTFGWNAMGWYRQAPGKERELVAAITSGGITNYADSVKGRFTISRDNAKNTVYLQMNSLKPEDTAVYYCNARPTSRRSWYYWKGYDYWGQGTQVTVSS | high polyreactivity
38 | QVQLVESGGGLVQAGGSLRLSCAASGSTFYQYVMGWYRQAPGKERELVAAISGSGGSTYYADSVKGRFTISRDNAKNTVYLQMNSLKPEDTAVYYCAADNYFDWYWLFFEYDYWGQGTQVTVSS | high polyreactivity
39 | QVQLVESGGRLVQAGGSLRLSCAASGYIFFHYSRGWYRQAPGTERELVAANTSGGSTNYADSVKGRFTMSRDNAKNTDYLQMNSLKPEDTAVYYCAARGWINSKRLYALWGFDYWGQGTQVTVSS | low polyreactivity
40 | QVQLVESGGGLVQAGGSLRLSCAASGSTFRHYAMGWYRQAPGKERELVAAITRRTVSTYYADSVKGRFTISRDNAKNSVYLQMNSLKPEHTAVYYCAADYWYSGYDYWGQGTQVTVSS | low polyreactivity
41 | QVQLVESGGGLVQAGGSLRLSCAASGSIFSIYAMGWYRQAPGKERELVAAITWGGGSTYYADSVKGRFTISRDNAKNTVNLQMNSLKPEDTAVYYCAADSLTWFGTYYYWGQGTQVTVSS | high polyreactivity
42 | QVQLVESGGGLVQAGGRLRLSCAASGRTFRLYAMGWYRQAPGKERELVAAINYSDGSTYYADSVKGRFTISRDIAKNTVYLQMNSLKPEDSAVSYCAADLQSGYTIPTSIVEYHPFDYWGQGTQVTVSS | low polyreactivity
43 | QVQLVESGGGLVQAGGSLRLSCAASGRTFYGYAMGWYRQAPGKERELVAAISRRGGSTNYADSVKGRFTLSRDNAKNTVYLQMNSLKPEDTAVYYCNVAFRIPYRMDYWGQGTQVTVSS | high polyreactivity
